Laboratory results published in FireProtDB (doi:10.1021/bi002653y).
“And” between values parts separate entries of the source, which are not always exact repeats. Equal values may be shown once.

Conditions: Desulfovibrio desulfuricans (strain ATCC 27774 / DSM 6949 / MB), pH 7, 20 °C, GdnHCl, sodium phosphate 5 mM, reversible: yes, whole UniProt chain shown

B1: Desulfoferrodoxin wild type, P22076 (protein)
chain: MPKHLEVYKCTHCGNIVEVLHGGGAELVCCGEPMKHMVEGSTDGAMEKHVPVIEKVDGGYLIKVGSVPHPMEEKHWIEWIELLADGRSYTKFLKPGDAPEAFFAIDASKVTAREYCNLHGHWKAEN
With B1 the “denaturant midpoint (higher = more stable)” value (“denaturant midpoint” for short) (CD, transition: 3) was 4.9 M and 5.1 M, the unfolding free energy (CD, transition: 3) was 11.3 kcal/mol and 12 kcal/mol and the “denaturant midpoint” value (Fluorescence) was 2.3 M. The unfolding free energy (Fluorescence) was 11.3 kcal/mol, the “denaturant midpoint” value (Fluorescence, transition: 3) was 1.7 M and 2.2 M and 2.9 M and the unfolding free energy (Fluorescence, transition: 3) was 10.6 kcal/mol and 10.9 kcal/mol.
